Measured values as given in patent publication US20190359693A1.

Key:
Test in all cases: cell-based or functional assay
[1] = molecular target: hemagglutinin (HA) of influenza virus H8N4 A/Eurasian Wigeon/MPH571/08 (influenza A virus)
[2] = molecular target: hemagglutinin (HA) of influenza virus H5N2 A/Eurasian Wigeon/MPF461/07 (influenza A virus)
[3] = molecular target: hemagglutinin (HA) of influenza virus H3N2 A/Panama/2007/99 (influenza A virus)
[4] = molecular target: hemagglutinin (HA) of influenza virus H9N2 A/HK/466419/09 (influenza A virus)
[5] = molecular target: hemagglutinin (HA) of influenza virus H14N5 A/Mallard/Astrakhan/263/1982 (influenza A virus)
[6] = molecular target: hemagglutinin (HA) of influenza virus H11N9 A/Northern Pintail/MPC2085/07 (influenza A virus)
[7] = molecular target: hemagglutinin (HA) of influenza virus H2N2 A/Guiyang/1/57 (influenza A virus)
[8] = molecular target: hemagglutinin (HA) of influenza virus H3N2 A/Victoria/210/09 (influenza A virus)
[9] = molecular target: hemagglutinin (HA) of influenza virus H1N1 A/Brisbane/59/07 (influenza A virus)
[10] = molecular target: hemagglutinin (HA) of influenza virus H1N1 A/New Caledonia/20/99 (influenza A virus)
[11] = molecular target: hemagglutinin (HA) of influenza virus H1N1 A/Christchurch/16/10 (influenza A virus)
[12] = molecular target: hemagglutinin (HA) of influenza virus H5N1 A/Vietnam/1194/04 (influenza A virus)
[13] = molecular target: hemagglutinin (HA) of influenza virus H8N2 A/Env/MPJ1258/09 (influenza A virus)
[14] = molecular target: hemagglutinin (HA) of influenza virus H3N2 A/Perth/16/09 (influenza A virus)
[15] = molecular target: hemagglutinin (HA) of influenza virus H3N2 A/Johannesburg/33/94 (influenza A virus)
[16] = molecular target: hemagglutinin (HA) of influenza virus H9N2 A/Ck/HK/SSP176/09 (influenza A virus)
[17] = molecular target: hemagglutinin (HA) of influenza virus H4N6 A/Great Cormorant/MPB1683/06 (influenza A virus)
[18] = molecular target: hemagglutinin (HA) of influenza virus H10N8 A/Jiangxi/346/2013 (influenza A virus)
[19] = molecular target: hemagglutinin (HA) of influenza virus H10N3 A/Common Teal/MPH11/08 (influenza A virus)
[20] = molecular target: hemagglutinin (HA) of influenza virus H5N1 A/PR8 H5N1 HK97 (influenza A virus)
[21] = molecular target: hemagglutinin (HA) of influenza virus H4 A/WF/HK/MPA892/06 (influenza A virus)
[22] = molecular target: hemagglutinin (HA) of influenza virus B/Brisbane/60/08 (Victoria) (influenza B virus)
[23] = molecular target: hemagglutinin (HA) of influenza virus H5N2 A/Eurasian Wigeon/HK/MPF333/07 (influenza A virus)
[24] = molecular target: hemagglutinin (HA) of influenza virus H7N3 A/NIBRG/60 (A/mallard/Netherlands/12/00) (influenza A virus)
[25] = molecular target: hemagglutinin (HA) of influenza virus H7N7 A/PR8 H7N7-NY (influenza A virus)

B1: MD2407 (bispecific antibody)
chain: EVQLVESGGGLVQPGGSLRLSCAVSISIFDIYAMDWYRQAPGKQRDLVATSFRDGSTNYADSVKGRFTISRDNAKNTLYLQMNSLKPEDTAVYLCHVSLYRDPLGVAGGMGVYWGKGALVTVSSGGGGSGGGGSEVQLVESGGGLVQAGGSLKLSCAASGRTYAMGWFRQAPGKEREFVAHINALGTRTYYSDSVKGRFTISRDNAKNTEYLEMNNLKPEDTAVYYCTAQGQWRAAPVAVAAEYEFWGQGTQVTVSSGGGGSGGGGSEVQLVESGGGLVQPGGSLRLSCAATGFTLENKAIGWFRQTPGSEREGVLCISKSGSWTYYTDSMRGRFTISRDNAENTVYLQMDSLKPEDTAVYYCATTTAGGGLCWDGTTFSRLASSWGQGTQVTVSSGGGGSGGGGSEVQLVESGGGLVQPGGSLKLSCAASGFTFSTSWMYWLRQAPGKGLEWVSVINTDGGTYYADSVKDRFTISRDNAKDTLYLQMSSLKSEDTAVYYCAKDWGGPEPTRGQGTQVTVSS
- average neutralization titer [1]: 15.1 nM
- average neutralization titer [2]: 16.6 nM
- average neutralization titer [3]: 14.9 nM
- average neutralization titer [4]: 53.9 nM
- average neutralization titer [5]: 19.2 nM
- average neutralization titer [6]: 34.5 nM
- average neutralization titer [7]: 126 nM
- average neutralization titer [8]: 6.5 nM
- average neutralization titer [9]: 3.7 nM
- average neutralization titer [10]: 5.7 nM
- average neutralization titer [11]: 1.3 nM
- average neutralization titer [12]: 9.2 nM
- average neutralization titer [13]: 8.8 nM
- average neutralization titer [14]: 8.1 nM
- average neutralization titer [15]: 11.6 nM
- average neutralization titer [16]: 23 nM
- average neutralization titer [17]: 4.8 nM
- average neutralization titer [18]: 30.4 nM
- average neutralization titer [19]: 19.3 nM
- average neutralization titer [20]: 3.6 nM
- average neutralization titer [21]: 6.8 nM
- average neutralization titer [22]: 4.1 nM
- average neutralization titer [23]: 26 nM
- average neutralization titer [24]: 13.8 nM
- average neutralization titer [25]: 22.3 nM
